First the molecules themselves.
B1: GpH7-B3 variant Q295_10E/GpL16-k0 (antibody, human IgG1, kappa)
heavy: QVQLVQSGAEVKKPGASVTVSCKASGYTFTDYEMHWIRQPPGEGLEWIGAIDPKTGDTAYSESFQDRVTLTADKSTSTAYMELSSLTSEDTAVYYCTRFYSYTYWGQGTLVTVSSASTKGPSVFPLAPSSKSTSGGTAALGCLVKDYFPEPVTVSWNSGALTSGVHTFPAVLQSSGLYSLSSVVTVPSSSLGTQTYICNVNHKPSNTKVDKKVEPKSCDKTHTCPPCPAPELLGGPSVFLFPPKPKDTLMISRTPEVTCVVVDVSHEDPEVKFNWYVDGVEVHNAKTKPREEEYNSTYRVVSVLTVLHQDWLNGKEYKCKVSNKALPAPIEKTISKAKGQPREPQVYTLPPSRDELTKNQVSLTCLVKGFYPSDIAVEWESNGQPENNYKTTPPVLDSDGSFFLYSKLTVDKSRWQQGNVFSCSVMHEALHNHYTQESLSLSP
light: DIVMTQSPLSLPVTPGEPASISCQASESLVHSNRNTYLHWYLQKPGQSPQLLIYKVSNRFSGVPDRFSGSGSGTDFTLKISRVEAEDVGVYYCSQNTHVPPTFGQGTKVEIERTVAAPSVFIFPPSDEQLKSGTASVVCLLNNFYPREAKVQWKVDNALQSGNSQESVTEQDSKDSTYSLSSTLTLSKADYEKHKVYACEVTHQGLSSPVTKSFNRGEC
notes: also called Ho Ab Q295_10E
B2: GpH7-A5/GpH7-B3 variant K334_01G/GpL16-k0 (antibody, human IgG1, kappa)
heavy 1: not shown
heavy 2: not shown
light: B1 light
notes: also called He Ab K334_01G
B3: GpH7-A5/GpH7-B3 variant I332_01G/GpL16-k0 (antibody, human IgG1, kappa)
heavy 1: not shown
heavy 2: not shown
light: B1 light
notes: also called He Ab I332_01G
B4: GpH7-A5/GpH7-B3 variant K334_02A/GpL16-k0 (antibody, human IgG1, kappa)
heavy 1: not shown
heavy 2: not shown
light: B1 light
notes: also called He Ab K334_02A
B5: GpH7-A5/GpH7-B3 variant K326_10E/GpL16-k0 (antibody, human IgG1, kappa)
heavy 1: not shown
heavy 2: not shown
light: B1 light
notes: also called He Ab K326_10E
B6: GpH7-A5/GpH7-B3 variant I336_13S/GpL16-k0 (antibody, human IgG1, kappa)
heavy 1: not shown
heavy 2: not shown
light: B1 light
notes: also called He Ab I336_13S
B7: GpH7-A5/GpH7-B3 variant K334_04F/GpL16-k0 (antibody, human IgG1, kappa)
heavy 1: not shown
heavy 2: not shown
light: B1 light
notes: also called He Ab K334_04F
B8: GpH7-A5/GpH7-B3 variant I332_09D/GpL16-k0 (antibody, human IgG1, kappa)
heavy 1: not shown
heavy 2: not shown
light: B1 light
notes: also called He Ab I332_09D
B9: GpH7-B3 variant Q295_14T/GpL16-k0 (antibody, human IgG1, kappa)
heavy: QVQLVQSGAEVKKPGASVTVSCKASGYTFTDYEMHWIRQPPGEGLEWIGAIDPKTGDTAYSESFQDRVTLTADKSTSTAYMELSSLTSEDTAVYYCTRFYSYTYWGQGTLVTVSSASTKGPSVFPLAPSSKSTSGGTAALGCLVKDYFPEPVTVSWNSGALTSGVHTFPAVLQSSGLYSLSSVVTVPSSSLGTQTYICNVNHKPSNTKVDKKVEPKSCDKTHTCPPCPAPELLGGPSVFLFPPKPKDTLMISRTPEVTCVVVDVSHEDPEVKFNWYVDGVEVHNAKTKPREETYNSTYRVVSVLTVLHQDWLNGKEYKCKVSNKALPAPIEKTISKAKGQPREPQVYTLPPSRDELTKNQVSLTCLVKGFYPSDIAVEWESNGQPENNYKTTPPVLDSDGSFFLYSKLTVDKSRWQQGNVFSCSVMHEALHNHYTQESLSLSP
light: B1 light
notes: also called Ho Ab Q295_14T
B10: GpH7-A5/GpH7-B3 variant I336_18N/GpL16-k0 (antibody, human IgG1, kappa)
heavy 1: not shown
heavy 2: not shown
light: B1 light
notes: also called He Ab I336_18N
B11: GpH7-A5/GpH7-B3 variant K326_19Q/GpL16-k0 (antibody, human IgG1, kappa)
heavy 1: not shown
heavy 2: not shown
light: B1 light
notes: also called He Ab K326_19Q
B12: GpH7-A5/GpH7-B3 variant K326_03V/GpL16-k0 (antibody, human IgG1, kappa)
heavy 1: not shown
heavy 2: not shown
light: B1 light
notes: also called He Ab K326_03V
B13: GpH7-A5/GpH7-B3 variant I336_10E/GpL16-k0 (antibody, human IgG1, kappa)
heavy 1: not shown
heavy 2: not shown
light: B1 light
notes: also called He Ab I336_10E
B14: GpH7-B3 variant S337_10E/GpL16-k0 (antibody, human IgG1, kappa)
heavy: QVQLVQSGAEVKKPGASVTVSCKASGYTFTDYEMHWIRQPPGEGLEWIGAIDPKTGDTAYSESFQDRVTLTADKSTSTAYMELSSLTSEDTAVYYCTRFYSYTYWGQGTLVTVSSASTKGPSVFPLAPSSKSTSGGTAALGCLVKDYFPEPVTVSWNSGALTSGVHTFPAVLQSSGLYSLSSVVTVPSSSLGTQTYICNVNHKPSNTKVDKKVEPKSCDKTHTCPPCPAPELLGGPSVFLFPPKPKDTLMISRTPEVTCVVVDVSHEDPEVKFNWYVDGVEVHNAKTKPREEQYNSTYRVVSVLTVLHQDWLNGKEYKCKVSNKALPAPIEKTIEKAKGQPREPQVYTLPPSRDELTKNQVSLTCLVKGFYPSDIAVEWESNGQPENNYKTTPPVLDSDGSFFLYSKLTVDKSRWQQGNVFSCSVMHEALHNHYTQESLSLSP
light: B1 light
notes: also called Ho Ab S337_10E
B15: GpH7-A5/GpH7-B3 variant K326_06M/GpL16-k0 (antibody, human IgG1, kappa)
heavy 1: not shown
heavy 2: not shown
light: B1 light
notes: also called He Ab K326_06M
B16: GpH7-B3 variant S267_02A/GpL16-k0 (antibody, human IgG1, kappa)
heavy: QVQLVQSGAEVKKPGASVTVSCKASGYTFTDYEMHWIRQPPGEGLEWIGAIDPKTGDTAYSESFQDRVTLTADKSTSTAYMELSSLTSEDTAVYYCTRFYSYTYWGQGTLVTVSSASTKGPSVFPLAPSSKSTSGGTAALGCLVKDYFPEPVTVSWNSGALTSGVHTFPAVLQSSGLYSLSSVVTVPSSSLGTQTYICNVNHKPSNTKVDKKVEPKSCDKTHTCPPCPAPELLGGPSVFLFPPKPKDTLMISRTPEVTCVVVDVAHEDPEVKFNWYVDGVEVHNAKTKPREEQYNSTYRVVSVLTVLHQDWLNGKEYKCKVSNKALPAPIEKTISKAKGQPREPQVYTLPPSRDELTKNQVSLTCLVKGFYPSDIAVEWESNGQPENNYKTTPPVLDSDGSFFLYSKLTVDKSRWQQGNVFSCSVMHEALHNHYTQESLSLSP
light: B1 light
notes: also called Ho Ab S267_02A
B17: GpH7-B3 variant S337_09D/GpL16-k0 (antibody, human IgG1, kappa)
heavy: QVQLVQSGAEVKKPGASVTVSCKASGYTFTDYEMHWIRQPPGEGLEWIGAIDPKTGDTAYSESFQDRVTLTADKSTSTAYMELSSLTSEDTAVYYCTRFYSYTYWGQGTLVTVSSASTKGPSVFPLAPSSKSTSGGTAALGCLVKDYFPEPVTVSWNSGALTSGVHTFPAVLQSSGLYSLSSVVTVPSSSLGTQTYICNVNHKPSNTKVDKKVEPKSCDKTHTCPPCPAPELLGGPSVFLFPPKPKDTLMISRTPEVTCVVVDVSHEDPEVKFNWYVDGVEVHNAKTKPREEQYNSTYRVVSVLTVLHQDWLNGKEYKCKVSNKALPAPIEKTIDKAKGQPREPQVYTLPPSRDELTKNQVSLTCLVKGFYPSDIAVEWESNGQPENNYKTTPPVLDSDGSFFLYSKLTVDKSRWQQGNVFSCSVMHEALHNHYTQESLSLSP
light: B1 light
notes: also called Ho Ab S337_09D
B18: GpH7-A5/GpH7-B3 variant I332_19Q/GpL16-k0 (antibody, human IgG1, kappa)
heavy 1: not shown
heavy 2: not shown
light: B1 light
notes: also called He Ab I332_19Q
B19: GpH7-A5/GpH7-B3 variant I336_14T/GpL16-k0 (antibody, human IgG1, kappa)
heavy 1: not shown
heavy 2: not shown
light: B1 light
notes: also called He Ab I336_14T
B20: GpH7-B3 variant S239_09D/GpL16-k0 (antibody, human IgG1, kappa)
heavy: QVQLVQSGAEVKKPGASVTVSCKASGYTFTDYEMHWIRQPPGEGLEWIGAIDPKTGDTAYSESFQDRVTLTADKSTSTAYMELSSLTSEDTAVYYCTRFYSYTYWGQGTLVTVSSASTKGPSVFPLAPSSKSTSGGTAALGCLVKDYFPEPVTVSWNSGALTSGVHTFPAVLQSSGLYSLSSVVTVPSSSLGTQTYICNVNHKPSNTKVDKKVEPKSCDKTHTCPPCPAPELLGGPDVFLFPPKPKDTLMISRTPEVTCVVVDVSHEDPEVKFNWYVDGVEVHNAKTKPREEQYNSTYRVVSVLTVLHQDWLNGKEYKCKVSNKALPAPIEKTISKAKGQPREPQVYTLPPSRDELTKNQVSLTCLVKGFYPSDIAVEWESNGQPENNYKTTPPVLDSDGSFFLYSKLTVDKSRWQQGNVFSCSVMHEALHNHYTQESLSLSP
light: B1 light
notes: also called Ho Ab S239_09D
B21: GpH7-B3 variant S337_18N/GpL16-k0 (antibody, human IgG1, kappa)
heavy: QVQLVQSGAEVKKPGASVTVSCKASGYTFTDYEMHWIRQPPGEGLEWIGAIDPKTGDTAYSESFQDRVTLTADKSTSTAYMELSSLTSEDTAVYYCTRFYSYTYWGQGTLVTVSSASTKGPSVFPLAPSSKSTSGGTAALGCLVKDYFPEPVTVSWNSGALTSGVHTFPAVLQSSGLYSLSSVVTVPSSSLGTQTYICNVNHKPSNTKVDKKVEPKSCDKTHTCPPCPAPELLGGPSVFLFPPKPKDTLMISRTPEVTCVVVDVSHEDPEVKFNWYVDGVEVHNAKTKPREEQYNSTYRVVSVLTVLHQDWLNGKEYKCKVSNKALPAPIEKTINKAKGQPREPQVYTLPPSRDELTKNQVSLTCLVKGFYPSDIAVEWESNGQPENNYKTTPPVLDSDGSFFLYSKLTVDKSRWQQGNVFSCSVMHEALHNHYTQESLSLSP
light: B1 light
notes: also called Ho Ab S337_18N
B22: GpH7-A5/GpH7-B3 variant H268_13S/GpL16-k0 (antibody, human IgG1, kappa)
heavy 1: not shown
heavy 2: not shown
light: B1 light
notes: also called He Ab H268_13S
B23: GpH7-A5/GpH7-B3 variant I332_10E/GpL16-k0 (antibody, human IgG1, kappa)
heavy 1: not shown
heavy 2: not shown
light: B1 light
notes: also called He Ab I332_10E
B24: GpH7-B3 variant T335_10E/GpL16-k0 (antibody, human IgG1, kappa)
heavy: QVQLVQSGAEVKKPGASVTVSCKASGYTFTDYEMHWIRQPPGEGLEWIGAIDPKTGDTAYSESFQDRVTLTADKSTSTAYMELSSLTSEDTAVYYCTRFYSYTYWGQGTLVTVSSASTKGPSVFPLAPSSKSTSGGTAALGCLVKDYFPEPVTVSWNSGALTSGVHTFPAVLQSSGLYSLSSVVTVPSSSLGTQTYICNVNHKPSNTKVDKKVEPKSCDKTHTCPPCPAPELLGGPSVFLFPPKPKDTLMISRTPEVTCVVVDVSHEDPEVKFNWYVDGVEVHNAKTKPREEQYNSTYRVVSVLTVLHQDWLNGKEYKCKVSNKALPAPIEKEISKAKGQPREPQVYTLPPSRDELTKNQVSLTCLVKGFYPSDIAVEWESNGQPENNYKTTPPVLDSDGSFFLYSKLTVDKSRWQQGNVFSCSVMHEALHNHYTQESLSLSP
light: B1 light
notes: also called Ho Ab T335_10E
B25: GpH7-A5/GpH7-B3 variant K326_09D/GpL16-k0 (antibody, human IgG1, kappa)
heavy 1: not shown
heavy 2: not shown
light: B1 light
notes: also called He Ab K326_09D
B26: GpH7-A5/GpH7-B3 variant K326_07I/GpL16-k0 (antibody, human IgG1, kappa)
heavy 1: not shown
heavy 2: not shown
light: B1 light
notes: also called He Ab K326_07I

T1 sequence (P08637 17-208): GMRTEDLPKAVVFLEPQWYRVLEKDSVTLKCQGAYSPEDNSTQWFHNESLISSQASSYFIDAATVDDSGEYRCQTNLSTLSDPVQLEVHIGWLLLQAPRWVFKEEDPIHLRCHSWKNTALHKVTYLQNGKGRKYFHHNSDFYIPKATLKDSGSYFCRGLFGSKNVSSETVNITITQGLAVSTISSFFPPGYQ

The experiment concerns the target T1, FcγRIIIa extracellular domain with C-terminal His tag (human, UniProt P08637 17-208).
T1 construct: extracellular domain; also called FcgRIIIa; 3a; not shown: His tag attached to the C terminus
Put plainly: SPR Biacore, captured antibody, FcγR analyte, relative binding. As to the method: Analysis of interaction between objective antibody and the FcγR was carried out using Biacore T100 (GE Healthcare). HBS-EP+ (GE Healthcare) was used as the running buffer, and the measurement temperature was set to 25° C. Chips produced by immobilizing the antigen peptide by the amine coupling method to a Series S Sencor Chip CM5 (GE Healthcare), or alternatively, chips produced by allowing preliminarily biotinylated antigen peptides to interact with and immobilize onto a Series S Sensor Chip SA (certified) (GE Healthcare) were used. Antibodies of interest were captured onto an antigen peptide-immobilized chip, and allowed to interact to each FcγR diluted with running buffer. To regenerate and repeatedly use the chip, the antibodies captured on the chip were washed off by reacting 10 mM glycine-HCl, pH 1.5.
For B1, the Ho/Con_3a is 111 % of HoCon Ab GpH7-B3/GpL16-k0 (=100).

Take B2: the He/Con_3a was 121 % of HeCon Ab GpH7-A5/GpH7-B3/GpL16-k0 (=100).

Turning to B3, the He/Con_3a is 111 % of HeCon Ab GpH7-A5/GpH7-B3/GpL16-k0 (=100).

B4: the He/Con_3a is 147 % of HeCon Ab GpH7-A5/GpH7-B3/GpL16-k0 (=100).

Regarding B5, the He/Con_3a was 124 % of HeCon Ab GpH7-A5/GpH7-B3/GpL16-k0 (=100).

As to B6, the He/Con_3a was 102 % of HeCon Ab GpH7-A5/GpH7-B3/GpL16-k0 (=100).

On to B7, for which the He/Con_3a is 148 % of HeCon Ab GpH7-A5/GpH7-B3/GpL16-k0 (=100).

As for B8, the He/Con_3a is 207 % of HeCon Ab GpH7-A5/GpH7-B3/GpL16-k0 (=100).

As for B9, the Ho/Con_3a was 108 % of HoCon Ab GpH7-B3/GpL16-k0 (=100).

For B10, the He/Con_3a was 104 % of HeCon Ab GpH7-A5/GpH7-B3/GpL16-k0 (=100).

Regarding B11, the He/Con_3a is 106 % of HeCon Ab GpH7-A5/GpH7-B3/GpL16-k0 (=100).

B12: the He/Con_3a was 122 % of HeCon Ab GpH7-A5/GpH7-B3/GpL16-k0 (=100).

As for B13, the He/Con_3a is 119 % of HeCon Ab GpH7-A5/GpH7-B3/GpL16-k0 (=100).

For the molecule B14, the Ho/Con_3a was 100 % of HoCon Ab GpH7-B3/GpL16-k0 (=100).

Consider B15, for which the He/Con_3a was 115 % of HeCon Ab GpH7-A5/GpH7-B3/GpL16-k0 (=100).

Take B16: the Ho/Con_3a is 145 % of HoCon Ab GpH7-B3/GpL16-k0 (=100).

For B17, the Ho/Con_3a is 106 % of HoCon Ab GpH7-B3/GpL16-k0 (=100).

On to B18, for which the He/Con_3a was 110 % of HeCon Ab GpH7-A5/GpH7-B3/GpL16-k0 (=100).

On to B19, for which the He/Con_3a is 108 % of HeCon Ab GpH7-A5/GpH7-B3/GpL16-k0 (=100).

For the molecule B20, the Ho/Con_3a was 192 % of HoCon Ab GpH7-B3/GpL16-k0 (=100).

For the molecule B21, the Ho/Con_3a was 102 % of HoCon Ab GpH7-B3/GpL16-k0 (=100).

Regarding B22, the He/Con_3a was 122 % of HeCon Ab GpH7-A5/GpH7-B3/GpL16-k0 (=100).

With B23, the He/Con_3a is 233 % of HeCon Ab GpH7-A5/GpH7-B3/GpL16-k0 (=100).

On to B24, for which the Ho/Con_3a is 102 % of HoCon Ab GpH7-B3/GpL16-k0 (=100).

In the case of B25, the He/Con_3a was 134 % of HeCon Ab GpH7-A5/GpH7-B3/GpL16-k0 (=100).

Take B26: the He/Con_3a was 139 % of HeCon Ab GpH7-A5/GpH7-B3/GpL16-k0 (=100).

The values are drawn from patent US20150344570A1 (published 2015).
